Assay [1] addresses T1, Anti-CD28 scFv (VH-linker 1-VL) (biotinylated (site not stated)).
T1 construct: biotinylated and captured on neutravidin coated plates in the phage ELISA
Kind of assay: phage binding ELISA on captured biotinylated anti-CD28 scFv.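 Also: crude clonal phage supernatants applied to the wells, bound phage read out with an HRP-conjugated anti-M13 antibody.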

Assay [2] concerns the target T1, Anti-CD28 scFv (VH-linker 1-VL). Kind of assay: phage binding ELISA on captured anti-CD28 scFv, wells pre-incubated with soluble CD28 (competitor).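 Also: crude clonal phage supernatants added without washing, bound phage detected by HRP-conjugated anti-M13 antibody, control wells held blocking buffer alone instead of CD28.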
Description: Clonal phage were harvested as crude supernatants and screened via standard enzyme linked immunosorbent assays (ELISAs). […] Prior to the addition of clonal phage, wells were incubated with blocking buffer and CD28 soluble protein or blocking buffer alone. Without washing or aspirating, clonal phage supernatants were then added to the wells and incubated for a short time. Wells were then washed followed by detection of bound phage using a horse radish peroxidase conjugated anti-M13 antibody.

T1 sequence (scFv, as listed by the source): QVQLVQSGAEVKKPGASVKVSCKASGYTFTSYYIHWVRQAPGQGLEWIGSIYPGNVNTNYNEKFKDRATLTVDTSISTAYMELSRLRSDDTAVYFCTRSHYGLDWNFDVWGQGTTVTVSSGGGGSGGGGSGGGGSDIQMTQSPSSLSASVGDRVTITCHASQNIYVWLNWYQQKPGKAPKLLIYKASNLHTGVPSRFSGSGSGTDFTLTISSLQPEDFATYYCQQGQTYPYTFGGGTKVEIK

For the molecule MDWCPRHMWHECFH [Phage-402], in assay [1], the “CD28 scFv signal” value stood at 1.81. Also, the “CD28 scFv signal in presence of CD28” value in assay [2] is 0.171.

For LHWCPITMWTYCYY [Phage-409], in assay [1], the “CD28 scFv signal” value amounted to 1.21. The “CD28 scFv signal in presence of CD28” value in assay [2] is 0.516.

Consider IMWCPTSLWNRCVT [Phage-384], for which the “CD28 scFv signal” value in assay [1] worked out at 0.161. For the same molecule, the “CD28 scFv signal in presence of CD28” value in assay [2] was 0.129.

Regarding IDWCPRYMWHECFF [Phage-410], the “CD28 scFv signal” value in assay [1] worked out at 1.18. Also, the “CD28 scFv signal in presence of CD28” value in assay [2] is 0.164.

For the molecule MDWCPRAMWDYCFY [Phage-397], in assay [1], the “CD28 scFv signal” value is 2.11. In assay [2], the “CD28 scFv signal in presence of CD28” value was 0.339.

Regarding MNWCPRALWHECFL [Phage-375], the “CD28 scFv signal” value in assay [1] came out at 0.759. Further, the “CD28 scFv signal in presence of CD28” value in assay [2] is 0.107.

As to MDWCPSFLWYECFN [Phage-367], in assay [1], the “CD28 scFv signal” value stood at 1.13. Also, the “CD28 scFv signal in presence of CD28” value in assay [2] came out at 0.104.

With LYWCPRDMWAYCYS [Phage-414], the “CD28 scFv signal” value in assay [1] was found to be 1.02. Also, the “CD28 scFv signal in presence of CD28” value in assay [2] amounted to 0.157.

For MDWCPMSMWAFCFD [Phage-405], the “CD28 scFv signal” value in assay [1] was found to be 1.41. In assay [2], the “CD28 scFv signal in presence of CD28” value is 0.16.

Regarding MTWCPAYLWHECFN [Phage-370], the “CD28 scFv signal” value in assay [1] is 0.985. In addition, in assay [2], the “CD28 scFv signal in presence of CD28” value worked out at 0.139.

MDWCPRSLWAQCFY [Phage-364]: the “CD28 scFv signal” value in assay [1] is 1.39. For the same molecule, the “CD28 scFv signal in presence of CD28” value in assay [2] worked out at 0.14.

Regarding MDWCPFDMWADCFF [Phage-391], in assay [1], the “CD28 scFv signal” value was 2.53. For the same molecule, in assay [2], the “CD28 scFv signal in presence of CD28” value is 0.215.

Regarding MNWCPIHMWNQCFA [Phage-407], the “CD28 scFv signal” value in assay [1] is 1.37. In assay [2], the “CD28 scFv signal in presence of CD28” value stood at 0.133.

Turning to MDWCPRYLWVDCFA [Phage-372], in assay [1], the “CD28 scFv signal” value was 0.917. The “CD28 scFv signal in presence of CD28” value in assay [2] stood at 0.218.

For MAWCPLDLWDKCFY [Phage-374], the “CD28 scFv signal” value in assay [1] is 0.77. In addition, in assay [2], the “CD28 scFv signal in presence of CD28” value came out at 0.141.

For the molecule MDWCPFDLWLECFN [Phage-377], the “CD28 scFv signal” value in assay [1] came to 0.65. Moreover, the “CD28 scFv signal in presence of CD28” value in assay [2] came out at 0.12.

Regarding TDWCPRDMWYLCFN [Phage-396], the “CD28 scFv signal” value in assay [1] was determined as 2.11. Also, the “CD28 scFv signal in presence of CD28” value in assay [2] is 0.301.

On to LAGCQRDLATVCVI [Phage-383], for which the “CD28 scFv signal” value in assay [1] came out at 0.229. For the same molecule, the “CD28 scFv signal in presence of CD28” value in assay [2] turned out to be 0.116.

QHWCPRDMWNDCYA [Phage-412]: in assay [1], the “CD28 scFv signal” value was 1.08. Moreover, the “CD28 scFv signal in presence of CD28” value in assay [2] amounted to 0.149.

MDWCPLDMWVLCFA [Phage-401]: the “CD28 scFv signal” value in assay [1] stood at 1.84. For the same molecule, in assay [2], the “CD28 scFv signal in presence of CD28” value came out at 0.169.

Turning to MSWCPPYLWTVCYN [Phage-368], the “CD28 scFv signal” value in assay [1] was 1.1. The “CD28 scFv signal in presence of CD28” value in assay [2] was found to be 0.326.

MHWCPTYMWSECFA [Phage-400]: in assay [1], the “CD28 scFv signal” value is 1.84. For the same molecule, the “CD28 scFv signal in presence of CD28” value in assay [2] amounted to 0.161.

As to MAWCPRILWHQCFN [Phage-381], the “CD28 scFv signal” value in assay [1] was determined as 0.322. Further, in assay [2], the “CD28 scFv signal in presence of CD28” value came to 0.129.

MDWCPSDMWSNCFN [Phage-413]: the “CD28 scFv signal” value in assay [1] is 1.07. Further, the “CD28 scFv signal in presence of CD28” value in assay [2] was 0.121.

With MHWCPLHLWNECFA [Phage-378], the “CD28 scFv signal” value in assay [1] came to 0.575. In assay [2], the “CD28 scFv signal in presence of CD28” value came out at 0.083.

For the molecule MDWCPRDMWTSCFN [Phage-404], the “CD28 scFv signal” value in assay [1] came out at 1.41. In addition, the “CD28 scFv signal in presence of CD28” value in assay [2] turned out to be 0.179.

MDWCPRHLWTYCFH [Phage-376]: in assay [1], the “CD28 scFv signal” value turned out to be 0.757. The “CD28 scFv signal in presence of CD28” value in assay [2] was 0.207.

As to MDWCPRSMWDSCFN [Phage-399], the “CD28 scFv signal” value in assay [1] was found to be 2.02. Also, the “CD28 scFv signal in presence of CD28” value in assay [2] turned out to be 0.142.

MDWCPRNMWNECFF [Phage-398]: the “CD28 scFv signal” value in assay [1] stood at 2.1. Besides, in assay [2], the “CD28 scFv signal in presence of CD28” value was determined as 0.43.

Regarding MDWCPMYMWHKCFH [Phage-415], in assay [1], the “CD28 scFv signal” value was found to be 0.987. Also, the “CD28 scFv signal in presence of CD28” value in assay [2] was 0.168.

Regarding MDWCPRDMWFECFN [Phage-393], the “CD28 scFv signal” value in assay [1] is 2.42. Further, in assay [2], the “CD28 scFv signal in presence of CD28” value was 0.778.

For the molecule MDWCPKDMWAECFN [Phage-395], the “CD28 scFv signal” value in assay [1] is 2.11. Besides, the “CD28 scFv signal in presence of CD28” value in assay [2] was 0.457.

MDYCPSYLWHECFA [Phage-380]: the “CD28 scFv signal” value in assay [1] worked out at 0.47. The “CD28 scFv signal in presence of CD28” value in assay [2] was found to be 0.09.

Take MDWCPSYLWPVCFN [Phage-365]: in assay [1], the “CD28 scFv signal” value came out at 1.18. Besides, the “CD28 scFv signal in presence of CD28” value in assay [2] was 0.131.

For the molecule MHWCPRDLWYECFA [Phage-369], the “CD28 scFv signal” value in assay [1] is 0.995. For the same molecule, in assay [2], the “CD28 scFv signal in presence of CD28” value is 0.108.

Regarding MSWCPRFMWHECFN [Phage-411], the “CD28 scFv signal” value in assay [1] came out at 1.11. The “CD28 scFv signal in presence of CD28” value in assay [2] was 0.246.

In the case of MDWCPRYMWSDCFF [Phage-394], in assay [1], the “CD28 scFv signal” value was 2.28. The “CD28 scFv signal in presence of CD28” value in assay [2] stood at 0.377.

In the case of MFWCPKDMWAECFA [Phage-408], the “CD28 scFv signal” value in assay [1] is 1.26. In addition, the “CD28 scFv signal in presence of CD28” value in assay [2] was found to be 0.113.

For the molecule ILRCQMNLQDECLN [Phage-385], the “CD28 scFv signal” value in assay [1] came to 0.083. Also, the “CD28 scFv signal in presence of CD28” value in assay [2] was 0.077.

MDWCPRNLWAECFS [Phage-379]: in assay [1], the “CD28 scFv signal” value is 0.538. Moreover, the “CD28 scFv signal in presence of CD28” value in assay [2] was 0.08.

On to MDWCPRILWHECFS [Phage-362], for which the “CD28 scFv signal” value in assay [1] is 1.39. Moreover, the “CD28 scFv signal in presence of CD28” value in assay [2] is 0.174.

Turning to MHWCPLYLWDECFY [Phage-366], the “CD28 scFv signal” value in assay [1] was 1.16. Besides, the “CD28 scFv signal in presence of CD28” value in assay [2] stood at 0.376.

As for MSWCPWDMWNECFA [Phage-403], the “CD28 scFv signal” value in assay [1] turned out to be 1.52. Moreover, in assay [2], the “CD28 scFv signal in presence of CD28” value was 0.108.

With ITWCPTSLWNRCLV [Phage-382], the “CD28 scFv signal” value in assay [1] came out at 0.242. Also, the “CD28 scFv signal in presence of CD28” value in assay [2] worked out at 0.089.

Regarding MNWCPIDMWTECFN [Phage-406], the “CD28 scFv signal” value in assay [1] was 1.4. Moreover, the “CD28 scFv signal in presence of CD28” value in assay [2] turned out to be 0.175.

Turning to MNWCPMHLWAECFN [Phage-363], the “CD28 scFv signal” value in assay [1] was 1.39. Moreover, the “CD28 scFv signal in presence of CD28” value in assay [2] came out at 0.14.

Take NHWCPTTLWNRCVA [Phage-386]: the “CD28 scFv signal” value in assay [1] amounted to 0.078. Besides, the “CD28 scFv signal in presence of CD28” value in assay [2] stood at 0.093.

Regarding MHWCPRHLWSECFN [Phage-361], the “CD28 scFv signal” value in assay [1] was found to be 1.43. Besides, in assay [2], the “CD28 scFv signal in presence of CD28” value is 0.478.

Consider MDWCPRILWSDCFN [Phage-373], for which the “CD28 scFv signal” value in assay [1] was 0.847. The “CD28 scFv signal in presence of CD28” value in assay [2] is 0.113.
